What was measured:
human factor B (human) [1] = biological target: human factor B (human) (UniProt P00751); assay: cell-based or functional assay
human factor B (human) [2] = biological target: human factor B (human) (UniProt P00751); assay: competition ELISA; Anti-Ba varied, factor B binding to properdin-bound C3b on plates
human factor B (human) [3] = biological target: human factor B (human) (UniProt P00751); assay: competition ELISA; Anti-Ba varied, factor B binding to C3b or properdin-bound C3b; range told for both formats
[4] = biological target: Ba protein (Ba fragment of factor B) (human) (UniProt P00751); assay: ELISA; antibody titrated on Ba-coated wells
Sequence of Ba protein (Ba fragment of factor B) (human) (P00751 other isoform, or with tags, fused parts or gaps limits assumed): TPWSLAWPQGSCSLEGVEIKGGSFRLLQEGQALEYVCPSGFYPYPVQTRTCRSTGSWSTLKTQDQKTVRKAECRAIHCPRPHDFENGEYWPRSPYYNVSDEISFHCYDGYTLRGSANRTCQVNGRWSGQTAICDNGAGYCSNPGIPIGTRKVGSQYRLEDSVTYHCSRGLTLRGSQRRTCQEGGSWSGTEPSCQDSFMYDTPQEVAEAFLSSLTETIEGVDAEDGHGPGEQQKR

human factor B (human) [5] = biological target: human factor B (human) (UniProt P00751); assay: competition ELISA; Anti-Ba varied, factor B binding to C3b-coated plates

Sequence of human factor B (human) (P00751 other isoform, or with tags, fused parts or gaps limits assumed): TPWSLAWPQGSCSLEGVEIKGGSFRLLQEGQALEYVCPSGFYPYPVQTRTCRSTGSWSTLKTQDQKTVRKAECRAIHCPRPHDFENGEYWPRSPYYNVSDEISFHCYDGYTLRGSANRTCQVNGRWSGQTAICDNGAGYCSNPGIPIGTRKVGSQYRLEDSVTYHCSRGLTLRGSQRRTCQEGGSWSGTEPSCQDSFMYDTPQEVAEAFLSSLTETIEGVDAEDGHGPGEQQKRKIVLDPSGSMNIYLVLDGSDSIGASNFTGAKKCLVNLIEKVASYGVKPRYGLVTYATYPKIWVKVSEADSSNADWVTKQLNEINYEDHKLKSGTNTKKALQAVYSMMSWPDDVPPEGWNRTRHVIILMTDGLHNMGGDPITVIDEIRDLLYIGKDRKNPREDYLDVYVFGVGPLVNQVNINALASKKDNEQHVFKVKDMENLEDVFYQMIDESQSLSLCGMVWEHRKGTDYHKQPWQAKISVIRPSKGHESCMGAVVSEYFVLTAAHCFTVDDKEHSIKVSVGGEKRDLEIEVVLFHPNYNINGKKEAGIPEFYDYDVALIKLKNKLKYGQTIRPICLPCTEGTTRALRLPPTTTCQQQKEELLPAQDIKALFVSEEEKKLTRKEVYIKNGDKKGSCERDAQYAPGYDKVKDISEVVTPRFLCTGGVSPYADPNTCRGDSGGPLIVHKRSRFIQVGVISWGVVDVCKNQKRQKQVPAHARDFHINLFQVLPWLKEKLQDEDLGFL

Inhibition of C5b-9 formation in normal human serum on LPS coated plates (AP dependent C3-convertase formation) (human factor B (human) [1]): 527 nM
IC50 (human factor B (human) [2]): 234 nM
IC50 (human factor B (human) [3]): 200 to 500 nM
Kd [4]: 9.65 nM
IC50 (human factor B (human) [5]): 556 nM
Substance: anti-factor Ba monoclonal antibody (Quidel A225, murine)
Inhibition of alternative pathway-dependent hemolysis of rabbit erythrocytes in 10% normal human serum (human factor B (human) [1]): 125 µg/mL
